Measured values published in patent publication CN114685666A (ZHEJIANG NANOMETER ANTIBODY TECH CENTER LIMITED COMPANY, dated 2022).

Key:
[1] = biological target: T1, 人MSLN.His抗原 (MSLN.His蛋白, 义翘神州科技股份有限公司, MSN-H5223) (human, UniProt Q13421 296-580, limits assumed); assay: SPR (Biacore), antibody captured on protein A chip, MSLN.His as analyte at 5 concentrations
T1 construct: Bought protein; not shown: His tag

[2] = biological target: MSLN expressed on HEK293T cells (HEK293T MSLN细胞) (UniProt Q13421); assay: flow cytometry on HEK293T cells expressing MSLN, anti-human IgG PE detection

T1 sequence (Q13421 other isoform, or with tags, fused parts or gaps limits assumed): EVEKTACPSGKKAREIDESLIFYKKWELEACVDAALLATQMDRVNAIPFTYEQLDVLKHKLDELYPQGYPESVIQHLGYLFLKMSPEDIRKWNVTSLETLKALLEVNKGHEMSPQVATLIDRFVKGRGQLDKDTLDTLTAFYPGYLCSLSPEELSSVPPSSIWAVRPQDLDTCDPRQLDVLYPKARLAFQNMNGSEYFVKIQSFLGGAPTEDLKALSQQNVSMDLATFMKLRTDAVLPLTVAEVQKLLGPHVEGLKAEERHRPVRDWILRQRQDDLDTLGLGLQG

B1: M2339 (重链抗体, 纳米抗体构建到pCDNA3.4-IgG4载体上表达) (Fc fusion)
heavy: QLQLGASGGGLVQPGGSLRLSCALSGFTLRELDEFAIGWFRQAPGKEREGVSCISGTGGITHYADSVKGRFTISRDIAKTTVYLQMNSLNSEDTAVYYCAADERCTDRLIRPPTYWGQGTQVTVSS
notes: also called 候选抗体; not shown: IgG4 constant part from the vector pCDNA3.4-IgG4
With B1 as the binder, how does the Kd [1] read?
Its Kd is 0.264 nM.

What about the koff [1] of the same binder?
The koff was 1.82e-05 s⁻¹.

What about the kon [1] of the same binder?
Its kon is 69000 M⁻¹ s⁻¹.

What about the EC50 [2] of the same binder?
The EC50 was 3.68 nM.
